Results as given in patent publication US20180155413A1 (AstraZeneca / MedImmune, published 2018).

Tests used:
Assay in all cases: cell-based or functional assay
HA of B/Lee/40 = HA of B/Lee/40 (influenza B virus, UniProt P03460 16-584)
[1] = biological target: HA of ca B/Ann Arbor/1/66 (influenza B virus)
HA of B/Hong Kong/5/72 = HA of B/Hong Kong/5/72 (influenza B virus)
[2] = biological target: HA of ca B/Beijing/243/97 (victoria) (influenza B virus)
[3] = biological target: HA of ca B/Ann Arbor/2/94 (yamagata) (influenza B virus)
[4] = biological target: HA of ca B/Johannesburg/5/99 (yamagata) (influenza B virus)
[5] = biological target: HA of ca B/Victoria/504/2000 (yamagata) (influenza B virus)
[6] = biological target: HA of B/Shanghai/361/02 (yamagata) (influenza B virus)
[7] = biological target: HA of B/Florida/4/2006 (yamagata) (influenza B virus)
[8] = biological target: HA protein derived from A/Hong Kong/8/68 H3N2, on stably transfected MDCK cells (influenza A virus)

HA of B/Lee/40, sequence (P03460 16-584 limits assumed): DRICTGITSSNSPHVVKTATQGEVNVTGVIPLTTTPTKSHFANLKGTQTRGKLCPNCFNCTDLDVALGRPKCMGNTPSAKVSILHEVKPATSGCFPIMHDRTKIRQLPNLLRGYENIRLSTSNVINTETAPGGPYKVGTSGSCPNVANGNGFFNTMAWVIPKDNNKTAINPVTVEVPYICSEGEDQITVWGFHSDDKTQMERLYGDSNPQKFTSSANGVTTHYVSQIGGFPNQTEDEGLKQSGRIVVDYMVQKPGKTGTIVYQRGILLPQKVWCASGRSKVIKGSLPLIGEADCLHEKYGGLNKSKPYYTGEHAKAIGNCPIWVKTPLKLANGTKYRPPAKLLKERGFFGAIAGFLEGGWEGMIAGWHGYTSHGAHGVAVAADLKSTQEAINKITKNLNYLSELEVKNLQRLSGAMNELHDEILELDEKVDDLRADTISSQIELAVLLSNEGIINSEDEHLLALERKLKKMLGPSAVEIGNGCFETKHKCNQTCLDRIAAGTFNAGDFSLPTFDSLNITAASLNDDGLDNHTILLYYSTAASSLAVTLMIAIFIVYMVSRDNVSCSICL

Row | Binder | Hemagglutination Inhibition Titer (HA of B/Lee/40) | Hemagglutination Inhibition Titer [1] | Hemagglutination Inhibition Titer (HA of B/Hong Kong/5/72) | Hemagglutination Inhibition Titer [2] | Hemagglutination Inhibition Titer [3] | Hemagglutination Inhibition Titer [4] | Hemagglutination Inhibition Titer [5] | Hemagglutination Inhibition Titer [6] | Hemagglutination Inhibition Titer [7] | EC50 (read off the curve), ADCP % double positive [8]
1 | GL20/39 BiS4 100/44 (bispecific antibody) light: DIQMTQSPSSLSASVGDRVTITCRTSQSLSSYTHWYQQKPGKAPKLLIYAASSRGSGVPSRFSGSGSGTDFTLTISSLQPEDFATYYCQQSRTFGQGTKVEIKRTVAAPSVFIFPPSDEQLKSGTASVVCLLNNFYPREAKVQWKVDNALQSGNSQESVTEQDSKDSTYSLSSTLTLSKADYEKHKVYACEVTHQGLSSPVTKSFNRGEC heavy: not shown | 61 nM | 244 nM | 244 nM | 91 nM | 61 nM | 122 nM | 61 nM | 91 nM | 61 nM | 
2 | GL20 IgG (antibody, V domains shown) VH: QVQLQQSGPGLVKPSQTLSLTCAISGDSVSSYNAVWNWIRQSPSRGLEWLGRTYYRSGWYNDYAESVKSRITINPDTSKNQFSLQLNSVTPEDTAVYYCARSGHITVFGVNVDAFDMWGQGTMVTVSS VL: DIQMTQSPSSLSASVGDRVTITCRTSQSLSSYTHWYQQKPGKAPKLLIYAASSRGSGVPSRFSGSGSGTDFTLTISSLQPEDFATYYCQQSRTFGQGTKVEIK |  |  |  |  |  |  |  |  |  | ~0.04 nM
